Test results from patent publication US9301917B2, “Sustained-release pharmaceutical composition” (Kyoto University, priority 2010, dated 2016).

Legend:
[1] = Influence of sugar on drug release from collagen in vitro (Example 1); assay type: physicochemical; conditions: lysozyme 2 mg/mL, atelocollagen 3% [w/v], sucrose 0.05 M vs no sucrose; PBS external liquid, 37° C., HPLC
Description: The influence of a sugar on drug release from a collagen was confirmed through use of lysozyme (final concentration: 2 mg/mL) (Sigma-Aldrich Corporation) as a drug.
Lysozyme was dissolved in a physiological buffer (PBS, pH 7.4) containing sucrose (final concentration: 0.05 M) or a physiological buffer containing no sucrose. After that, the solution and an atelocollagen solution (final concentration: 3% [w/v]) (product name: KOKEN ATELOCOLLAGEN IMPLANT) were mixed and formulated.
Conditions for the measurement were as follows: • Initial eluent: 30% acetonitrile solution containing 0.1% triethylamine (TEA) • Final eluent: concentration-gradient elution with 45% acetonitrile solution containing 0.1% TEA • rate: 1 mL/min • Elution time: 30 minutes • Detection wavelength: 220 nm

[2] = Influence of formulation procedure on drug release rate in vivo (Example 3); conditions: 100 μL to dorsal subcutis of mice, 1 hour; lysozyme 5 mg/mL, sucrose 0.25 M, atelocollagen 3% [w/v]; different mixing orders
Description: The following three kinds of ingredients were mixed in different orders and formulated as shown in the following items a) to d): lysozyme (MW: 14 kDa); sucrose; and atelocollagen (product name: KOKEN ATELOCOLLAGEN IMPLANT).
Each of the formulations was prepared so that the final concentrations of lysozyme, sucrose, and atelocollagen were 5 mg/mL, 0.25 M, and 3% [w/v], respectively.
100 μL of each of the formulations according to the above-mentioned items a) to d) were administered to the dorsal subcutis of mice. One hour later, the formulation that underwent gelation at a body temperature was taken out, and the amount of the lysozyme remaining in the gel was measured by HPLC to calculate the release amount of the lysozyme.

For lysozyme, the “amount of the lysozyme released into the external liquid” value [1] was “large in the case of containing sucrose as compared to the case of containing no sucrose” and the “release amount of the lysozyme in vivo” value [2] was “varied depending on a change in mixing procedure”.
